Test results as given in publication doi:10.1101/462036 (bioRxiv, 2018).

Biological target: the molecule itself
Test: SEC

B1: RIG-5 IG1 (purified, hexahistidine tag) (domain or fragment)
chain: GAPPTIQQPSMSSAVALLGQDVDFTCIVNDLGSHMVAFVKADSPPRLLSFDEKVFRRRNKYELKPRIGDLHNEWVLTIKNVQESDRGNYSCQINTEPITLSTGELDVKVP
modifications: one N-linked glycan per monomer
B1 was tested, and the “stoichiometry N” value was 2.
